Data set [1] deals with T1, papain (Carica papaya, UniProt P00784).
T1 construct: purchased Sigma-Aldrich
T1 sequence (P00784 134-345): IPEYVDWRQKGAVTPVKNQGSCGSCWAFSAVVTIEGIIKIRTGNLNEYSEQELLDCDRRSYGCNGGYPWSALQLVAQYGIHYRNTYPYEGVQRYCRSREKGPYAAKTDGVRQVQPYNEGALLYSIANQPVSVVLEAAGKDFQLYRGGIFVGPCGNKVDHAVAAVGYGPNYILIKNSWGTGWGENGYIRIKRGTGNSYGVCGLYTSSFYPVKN
In words: Fluorescence polarization-based papain binding assay. The settings on record: BFL-labelled controls; varying concentrations of papain. Here is the method:
Purified PNA 18-mers prepared as described above were reacted with BODIPY-fluorescein succinamidyl ester (BFL-SE, Molecular Probes). For each labelling reaction, 25 μL of a 250-400 μM stock solution of PNA in H2O was mixed with 25 μL 0.2 M sodium bicarbonate (pH 8.0) plus 2.5 μL of a 20 mg/mL solution of BFL-SE in DMSO. After four hours at 25° C., 50 μL DMSO was added, and the labelling reaction was incubated for an additional 4 hours. The labelled product was purified by reverse-phase HPLC as described above. The addition of the BFL fluorophore on the N-terminal primary amine typically delayed the elution time of the PNA by ˜5 min, and the absorption of the eluted peak was monitored both at 260 nm and at 470 nm. Masses of labelled peptides were confirmed by MALDI mass spectrometry, as follows:
Fluorescence polarization-based papain affinity assays were carried out as follows. BFL-labelled PNA was used at concentrations between 5 nM and 10 nM. […] After the binding reactions were equilibrated (4 hours at 25° C.), they were loaded onto a Nunc opaque black 384-well plate, and fluorescence polarization was measured using the Analyst AD system (Molecular Devices) with a fluorescein filter. Fluorescence polarization data in FIGS. 5B and 6C is shown as the change in fluorescence polarization (calculated relative to the output in the absence of protein) as a function of papain concentration. […]
Background: Polarisation of emitted light reports the rotation of a fluorescent probe.

The target in data set [2] is T1, papain. Kind of data set: Enrichment assay by papain affinity selection of translated template mixtures. The class given is binding. Here is the method:
The methods used for in vitro papain affinity selection have been reported previously (Giesen (1998) NUCLEIC ACIDS RES. 26, 5004-5006). Papain-conjugated sepharose beads (50 μL) were prepared according to this protocol and combined with […] of translated and displaced PNA library. After 4 hours at 4° C. with slow mixing, the beads were filtered, washed three times with high salt buffer (50 mM Tris pH 7.5, 0.5 M NaCl), once with low salt buffer (50 mM Tris pH 7.5, 0.1 M NaCl), and resuspended in 50 μL papain selection buffer (50 mM Tris pH 7.5, 100 mM NaCl, 1 mM EDTA). One fifth of the beads were removed for PCR as described below.
The remaining beads (40 μL) were heated for 15 min at 95° C., cooled to 60° C., supplemented with an equal volume of fresh papain-linked sepharose beads; cooled rapidly to 4° C., and the selection was repeated. This protocol was repeated three times (four rounds total) for the first-generation selection (FIG. 4A) and was repeated twice (three rounds total) for the second-generation selection (FIG. 6A). After each round of affinity selection, PCR was performed using one fifth of the total beads. Filtered beads were resuspended in 18 μL NEB buffer 4 with BSA, 1 μL Hha I, and 1 μL HinPI I (all restriction endonucleases purchased from New England Biolabs). Reactions were incubated for 1.5 hours at 37° C., then added directly into 80 μL PCR master mix containing 5 μL Taq buffer, 5 μL 25 mM MgCl2, 1 μL 100 μM primer 1, 1 μL 100 μM primer 2, 1 μL 25 mM dNTPs, and 1 μL Taq DNA polymerase and 54 μL H2O. Primer sequences are as follows:
For the enrichment experiments described in FIG. 5A, […] total template:mixture (500:1 M1 template:P1 template; or 500:1 U1 template:P1 template) was translated as described above using library translation conditions. The individual template sequences are as follows:
The translated products were displaced as described above, subjected to three rounds of selection against papain as described above, and the resulting bound DNA templates were digested and amplified by PCR as described above. […]

With `CC1=CC(C)=[N+]2C1=Cc1ccc(CCC(=O)NCCN)n1[B-]2(F)F` [BFL fluorophore, BFL-ethylenediamine], the “papain affinity (fluorescence polarization)” value at papain [1] is “did not bind papain”.

B1: P1 translation product: PNA 40-mer selected for papain binding, covalently linked to its DNA template (SEQ ID NO: 16) (conjugate)
DNA: TGCGACGGTGCGCACCGTCGCAAGCCATTCATGCATGCACCCAGGCATGCATTCATTCATGCGGACAAGGTGCGCACCTTGTCC
modifications: DNA, backbone and methylation of C not given here; DNA template covalently linked to PNA translation product, further chemistry not fully specified
In the case of B1, the “enrichment after papain affinity selection” value is roughly 500 fold in the data set with papain [2] (500:1 M1:P1 template mixture, translated, displaced, three rounds of selection, PCR and restriction digestion); 500 fold with papain [2] (500:1 mixture of U1 (unrelated):P1 templates).

B2: U1: unrelated library sequence, translated from template SEQ ID NO: 18 (conjugate)
DNA: TGCGACGGTGCGCACCGTCGCAAGTCAGTCACCCAATCACTCACGCATCCAGTCACCCAACCGGACAAGGTGCGCACCTTGTCC
modifications: DNA, backbone and methylation of C not given here; DNA template covalently linked to PNA translation product, further chemistry not fully specified
With B2, in the data set with papain [2] (500:1 ratio of M1:U1 DNA templates, translation, displacement, selection), the “enrichment after papain affinity selection” value is “no detectable enrichment”.

The values above are taken from patent publication US20090203530A1, “Polymer evolution via templated synthesis” (priority 2005, published 2009).
